Data: US20250277031A1 (BEIJING HANMI PHARMACEUTICAL, published 2025)

Legend:
Experiment in all cases: ELISA, plate coated with 1 µg/mL recombinant human protein, anti-human IgG-HRP, OD450; antibody concentration not given
[1] = biological target: T1, recombinant human PD1 (ACROBiosystems) (human, UniProt Q15116 25-167)
T1 construct: counted here as a CD28 family member
Procedure: (§1) Binding specificity of the chimeric anti-human CD47 mAbs was determined by ELISA. A 96-well high-adsorption ELISA plate was coated with 1 μg/mL of the recombinant human PD1, CD28, CTLA4, ICOS, BTLA, CD47, PD-L2, CD80, CD86, B7-H2, CD47, SIRPα and SIRPγ (all from ACROBiosystems), at 100 μL per well using carbonate buffer solution, pH=9.6 at 4° C. overnight. The plate was washed 5 times with PBST, and then blocked using PBST with 1% BSA, 300 μL/well, and incubated at 25° C. for 1 hour, and then washed 5 times with PBST. The chimeric anti-human CD47 mAb samples serially diluted in PBST with 1% BSA and the control CC-90002 and the isotype control were added, 100 μL/well, incubated at 25° C. for 1 hour, and then washed 5 times with PBST. The horseradish peroxidase-labeled anti-human IgG antibody (Chemicon, catalog number AP309P) diluted 1:10000 in PBST with 1% BSA was then added, 100 μL per well, and incubated at 25° C. for 1 hour. The plate was washed 5 times with PBST. The colorimetric substrate TMB was added, 100 μL/well, and developed at room temperature for 10 minutes. 1M H₂SO₄ was added, 100 μL/well, to stop the development. The absorbance at 450 nm was read on a microplate reader.

[2] = biological target: T2, recombinant human CD28 (ACROBiosystems) (human, UniProt P10747 19-152)
T2 construct: counted here as a CD28 family member
Procedure: as §1

[3] = biological target: T3, recombinant human CTLA4 (ACROBiosystems) (human, UniProt P16410 37-162, limits assumed)
T3 construct: counted here as a CD28 family member
Procedure: as §1

[4] = biological target: T4, recombinant human ICOS (ACROBiosystems) (human, UniProt Q9Y6W8 21-140, limits assumed)
T4 construct: counted here as a CD28 family member
T4 sequence (looked up): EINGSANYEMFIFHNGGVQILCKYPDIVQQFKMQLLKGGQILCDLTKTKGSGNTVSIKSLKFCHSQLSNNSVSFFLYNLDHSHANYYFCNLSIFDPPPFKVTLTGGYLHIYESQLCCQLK
Procedure: as §1

[5] = biological target: T5, recombinant human BTLA (ACROBiosystems) (human, UniProt Q7Z6A9 31-151, limits assumed)
T5 construct: counted here as a CD28 family member
Procedure: as §1

[6] = biological target: T6, recombinant human PD-L2 (ACROBiosystems) (human, UniProt Q9BQ51 20-219, limits assumed)
T6 construct: counted here as a B7 family member
T6 sequence (looked up): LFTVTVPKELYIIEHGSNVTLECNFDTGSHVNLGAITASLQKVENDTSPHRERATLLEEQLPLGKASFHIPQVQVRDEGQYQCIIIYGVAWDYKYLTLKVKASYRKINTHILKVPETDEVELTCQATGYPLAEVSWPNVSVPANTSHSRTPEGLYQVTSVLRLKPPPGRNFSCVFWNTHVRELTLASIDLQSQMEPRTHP
Procedure: as §1

[7] = biological target: T7, recombinant human CD80 (ACROBiosystems) (human, UniProt P33681 35-242)
T7 construct: counted here as a B7 family member
T7 sequence (looked up): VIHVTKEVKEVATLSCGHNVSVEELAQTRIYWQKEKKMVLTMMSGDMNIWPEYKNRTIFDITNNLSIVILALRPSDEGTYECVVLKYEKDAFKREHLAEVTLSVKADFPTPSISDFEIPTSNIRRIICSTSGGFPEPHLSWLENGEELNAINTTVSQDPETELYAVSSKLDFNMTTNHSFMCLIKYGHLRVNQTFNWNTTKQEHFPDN
Procedure: as §1

[8] = biological target: T8, recombinant human CD86 (ACROBiosystems) (human, UniProt P42081 26-247, limits assumed)
T8 construct: counted here as a B7 family member
T8 sequence (looked up): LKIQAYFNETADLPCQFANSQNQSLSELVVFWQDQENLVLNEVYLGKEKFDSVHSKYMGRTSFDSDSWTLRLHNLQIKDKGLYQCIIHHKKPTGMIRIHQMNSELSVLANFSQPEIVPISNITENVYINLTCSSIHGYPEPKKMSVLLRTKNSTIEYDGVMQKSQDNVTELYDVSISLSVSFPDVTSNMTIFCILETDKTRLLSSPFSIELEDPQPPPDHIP
Procedure: as §1

[9] = biological target: T9, recombinant human B7-H2 (ACROBiosystems) (human, UniProt O75144 19-258, limits assumed)
T9 construct: counted here as a B7 family member
T9 sequence (looked up): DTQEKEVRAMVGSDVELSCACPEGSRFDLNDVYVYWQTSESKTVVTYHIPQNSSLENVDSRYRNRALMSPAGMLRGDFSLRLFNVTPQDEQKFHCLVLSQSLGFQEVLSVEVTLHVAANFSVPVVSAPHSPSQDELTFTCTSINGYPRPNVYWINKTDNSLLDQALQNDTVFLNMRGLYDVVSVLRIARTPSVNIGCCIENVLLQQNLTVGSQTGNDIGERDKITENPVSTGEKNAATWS
Procedure: as §1

[10] = biological target: T10, recombinant human SIRPα (ACROBiosystems) (human, UniProt P78324 31-370)
T10 construct: unlabelled protein coated in the specificity ELISA
Procedure: as §1

[11] = biological target: recombinant human SIRPγ (ACROBiosystems) (human, UniProt Q9P1W8 29-360, limits assumed)
Procedure: as §1

Measured: binding result

T1 sequence (Q15116 25-167 limits assumed): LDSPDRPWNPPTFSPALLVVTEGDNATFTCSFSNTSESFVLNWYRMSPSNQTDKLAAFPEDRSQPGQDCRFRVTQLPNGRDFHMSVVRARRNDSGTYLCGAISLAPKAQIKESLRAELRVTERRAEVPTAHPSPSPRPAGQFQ
T5 sequence (Q7Z6A9 31-151 limits assumed): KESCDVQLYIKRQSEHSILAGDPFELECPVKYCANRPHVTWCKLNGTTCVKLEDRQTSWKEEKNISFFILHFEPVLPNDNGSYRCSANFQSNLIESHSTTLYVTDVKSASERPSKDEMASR
T10 sequence (P78324 31-370 limits assumed): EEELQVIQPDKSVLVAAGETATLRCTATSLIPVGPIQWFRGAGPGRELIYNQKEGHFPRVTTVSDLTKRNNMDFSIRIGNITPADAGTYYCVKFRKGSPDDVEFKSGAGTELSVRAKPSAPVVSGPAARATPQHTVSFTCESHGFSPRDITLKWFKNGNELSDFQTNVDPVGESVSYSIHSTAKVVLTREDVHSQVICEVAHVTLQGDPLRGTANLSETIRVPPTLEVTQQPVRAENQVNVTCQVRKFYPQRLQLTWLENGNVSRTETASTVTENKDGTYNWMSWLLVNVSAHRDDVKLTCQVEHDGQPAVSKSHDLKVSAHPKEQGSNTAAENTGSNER
Chain of recombinant human SIRPγ (ACROBiosystems) (Q9P1W8 29-360 limits assumed): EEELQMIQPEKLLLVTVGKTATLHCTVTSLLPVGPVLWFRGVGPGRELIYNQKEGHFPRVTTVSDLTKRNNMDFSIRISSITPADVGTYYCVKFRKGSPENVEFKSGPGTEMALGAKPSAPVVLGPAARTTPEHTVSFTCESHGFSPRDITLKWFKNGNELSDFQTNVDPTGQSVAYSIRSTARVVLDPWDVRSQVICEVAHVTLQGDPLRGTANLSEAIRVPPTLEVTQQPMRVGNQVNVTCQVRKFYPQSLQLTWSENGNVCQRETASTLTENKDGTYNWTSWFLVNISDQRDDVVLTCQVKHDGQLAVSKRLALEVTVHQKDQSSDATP
T3 sequence (P16410 37-162 limits assumed): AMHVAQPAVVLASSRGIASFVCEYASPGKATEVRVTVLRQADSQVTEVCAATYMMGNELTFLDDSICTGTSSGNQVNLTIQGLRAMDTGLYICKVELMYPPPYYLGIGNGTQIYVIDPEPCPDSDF

B1: chimeric anti-human CD47 monoclonal antibody mAb-18-5 (antibody, human IgG1, kappa)
heavy: not shown
light: DIVMTQSQKFMSTSVGDRVSITCKASQNVRTSIAWYQQKSGQSPKTLIYLASNRHTGVPDRFTGSGSGTDFTLTISNVQSEDLADYFCLQHWNYPFTFGSGTKLEIKRTVAAPSVFIFPPSDEQLKSGTASVVCLLNNFYPREAKVQWKVDNALQSGNSQESVTEQDSKDSTYSLSSTLTLSKADYEKHKVYACEVTHQGLSSPVTKSFNRGEC
no binding: all assays above
